The numbers were not newly measured in publication PMC9794804, which cites them from elsewhere.

Among the targets are TLR4 (UniProt O00206); TREM-1 (UniProt Q9NP99); IL-6R (UniProt P08887).

Chain of eCIRP (Q14011 whole entry): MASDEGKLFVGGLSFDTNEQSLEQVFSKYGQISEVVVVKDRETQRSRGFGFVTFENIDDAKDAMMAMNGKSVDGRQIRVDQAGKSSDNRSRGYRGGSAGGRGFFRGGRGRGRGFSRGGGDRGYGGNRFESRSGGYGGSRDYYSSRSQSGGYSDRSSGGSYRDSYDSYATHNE
Chain of TLR4 (O00206 24-631): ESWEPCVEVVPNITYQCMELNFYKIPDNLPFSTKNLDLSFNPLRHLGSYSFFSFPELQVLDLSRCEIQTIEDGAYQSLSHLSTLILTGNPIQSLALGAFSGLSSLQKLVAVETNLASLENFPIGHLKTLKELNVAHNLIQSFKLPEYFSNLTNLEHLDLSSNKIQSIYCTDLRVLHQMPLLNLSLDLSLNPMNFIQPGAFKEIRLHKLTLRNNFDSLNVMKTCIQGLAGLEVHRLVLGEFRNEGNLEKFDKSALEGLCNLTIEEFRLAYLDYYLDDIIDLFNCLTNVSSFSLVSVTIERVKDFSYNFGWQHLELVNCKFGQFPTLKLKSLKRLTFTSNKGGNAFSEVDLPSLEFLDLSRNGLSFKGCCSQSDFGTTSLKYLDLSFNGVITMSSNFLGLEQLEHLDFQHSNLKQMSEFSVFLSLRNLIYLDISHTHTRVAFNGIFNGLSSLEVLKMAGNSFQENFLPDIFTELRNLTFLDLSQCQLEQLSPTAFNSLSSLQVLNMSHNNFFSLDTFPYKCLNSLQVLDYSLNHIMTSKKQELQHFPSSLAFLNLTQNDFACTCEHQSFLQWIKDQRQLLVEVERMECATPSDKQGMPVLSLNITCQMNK
Chain of IL-6R (P08887 20-365): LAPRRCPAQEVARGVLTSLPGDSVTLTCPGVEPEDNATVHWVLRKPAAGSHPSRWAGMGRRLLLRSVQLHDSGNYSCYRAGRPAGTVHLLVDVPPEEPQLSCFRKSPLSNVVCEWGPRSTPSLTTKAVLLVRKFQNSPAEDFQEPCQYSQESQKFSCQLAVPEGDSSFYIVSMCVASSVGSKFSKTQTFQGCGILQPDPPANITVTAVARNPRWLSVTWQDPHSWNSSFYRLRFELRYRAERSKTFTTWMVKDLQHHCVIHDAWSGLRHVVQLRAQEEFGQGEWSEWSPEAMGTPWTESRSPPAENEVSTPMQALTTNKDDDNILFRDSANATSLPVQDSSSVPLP
Chain of TREM-1 (Q9NP99 21-205): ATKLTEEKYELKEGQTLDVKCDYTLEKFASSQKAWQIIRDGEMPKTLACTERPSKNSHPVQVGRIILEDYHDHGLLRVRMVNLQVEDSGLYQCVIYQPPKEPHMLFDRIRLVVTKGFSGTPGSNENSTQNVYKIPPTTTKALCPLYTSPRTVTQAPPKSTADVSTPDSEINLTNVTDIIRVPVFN

As for eCIRP (from UniProt Q14011), the Kd (as a rule, the constant that tells how readily two partners part at equilibrium) in the data set with TLR4 is 617 nM; with TREM-1, 117 nM; with IL-6R, 98 nM.
